Measured values: article PMC11603163

Biological target: CLSY3-3xF-BLRP (Arabidopsis) (UniProt F4I8S3)
Assay: co-IP; streptavidin beads (M-280 Dynabeads) capture CLSY3-3xF-BLRP from flower extracts of F1 plants crossed to NRPD1-3xF WT or CYC-AAAA; anti-FLAG western blot; dilution series of the WT co-IP

Chain of UniProt F4I8S3 (F4I8S3 whole entry): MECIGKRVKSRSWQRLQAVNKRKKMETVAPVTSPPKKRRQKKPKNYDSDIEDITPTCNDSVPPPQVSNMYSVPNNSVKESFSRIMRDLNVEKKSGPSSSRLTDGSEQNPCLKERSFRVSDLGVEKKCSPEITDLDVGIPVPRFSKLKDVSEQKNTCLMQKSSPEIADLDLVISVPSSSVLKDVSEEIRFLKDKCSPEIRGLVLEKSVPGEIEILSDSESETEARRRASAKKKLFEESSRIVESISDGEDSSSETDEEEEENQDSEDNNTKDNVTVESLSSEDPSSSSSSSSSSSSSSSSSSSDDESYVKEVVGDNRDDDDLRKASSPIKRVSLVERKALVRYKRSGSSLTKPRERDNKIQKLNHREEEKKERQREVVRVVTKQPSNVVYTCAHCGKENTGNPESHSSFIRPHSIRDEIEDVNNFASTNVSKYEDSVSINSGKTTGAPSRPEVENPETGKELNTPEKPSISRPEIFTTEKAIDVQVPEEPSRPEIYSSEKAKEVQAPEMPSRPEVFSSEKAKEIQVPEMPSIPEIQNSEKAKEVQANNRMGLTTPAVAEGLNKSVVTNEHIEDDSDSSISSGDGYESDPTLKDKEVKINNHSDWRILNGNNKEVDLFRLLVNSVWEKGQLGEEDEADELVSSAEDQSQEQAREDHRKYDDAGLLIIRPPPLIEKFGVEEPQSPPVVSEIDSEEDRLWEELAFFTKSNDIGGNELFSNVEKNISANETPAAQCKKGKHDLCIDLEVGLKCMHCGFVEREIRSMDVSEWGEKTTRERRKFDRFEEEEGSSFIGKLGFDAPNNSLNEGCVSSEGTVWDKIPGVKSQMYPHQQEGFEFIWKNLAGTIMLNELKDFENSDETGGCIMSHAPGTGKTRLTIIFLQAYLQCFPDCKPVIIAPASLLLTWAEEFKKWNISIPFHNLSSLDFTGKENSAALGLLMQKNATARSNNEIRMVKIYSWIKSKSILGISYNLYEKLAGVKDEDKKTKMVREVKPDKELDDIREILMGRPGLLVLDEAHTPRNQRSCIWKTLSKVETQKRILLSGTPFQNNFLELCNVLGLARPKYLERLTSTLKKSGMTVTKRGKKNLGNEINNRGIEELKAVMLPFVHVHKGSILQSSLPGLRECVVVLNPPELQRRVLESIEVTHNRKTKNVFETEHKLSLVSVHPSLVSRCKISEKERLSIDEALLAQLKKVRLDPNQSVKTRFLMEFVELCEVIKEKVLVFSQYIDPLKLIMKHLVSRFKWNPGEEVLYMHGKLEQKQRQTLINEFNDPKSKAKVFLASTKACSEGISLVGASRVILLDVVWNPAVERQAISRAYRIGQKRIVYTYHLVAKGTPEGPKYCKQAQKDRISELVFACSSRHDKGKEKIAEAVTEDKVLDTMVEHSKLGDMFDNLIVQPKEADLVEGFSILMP

fold reduction of the co-IP against NRPD1-3xFWT: > 8 fold
Substance: NRPD1-3xF_(CYC-AAAA) (from UniProt Q9LQ02 1-1453) (natural protein)
